The source of these data is patent US20160215026A1.

The term koff denotes the first-order rate constant of dissociation. A word on the kon: it is the rate constant with which the complex forms. Higher therefore signals faster complex formation.

In assay [1] the target is human immunoglobulin G drug separated from human plasma (human). In words: SPR, Biacore 3000, human IgG immobilized on CM5, peptide as analyte, 25 C, pH 7.4, 1:1 model.
Assay [2] shares this target. In words: SPR, Biacore 3000, human IgG immobilized; reference C-G29A/S33E.1d. For orientation: In SPR one partner is held on a chip, and binding of the other changes the refractive index at the surface.

With “C-G29A/S33E/K7E/A46E.1d (designed binder)”, in assay [1], the Ka was 3.9e+07 M⁻¹, the off-rate (koff) was found to be 0.00709 s⁻¹ and the kon is 276000 M⁻¹ s⁻¹.
“C-G29A/S33E/K7E/H18D/V40D/A46D/Q55E.1d (designed binder)” showed an affinity constant KA relative to C-G29A/S33E.1d in assay [2] of 0.1 fold. For the same substance, in assay [1], the Ka turned out to be 5.7e+06 M⁻¹, the koff amounted to 0.00519 s⁻¹ and the kon turned out to be 29000 M⁻¹ s⁻¹.
